Results on one molecule are retold here after paper PMC8784325, “The ubiquitin-binding domain of DNA polymerase η directly binds to DNA clamp PCNA and regulates translesion DNA synthesis” (The Journal of Biological Chemistry, 2021).

For experiment [1], the system named is rad30Δ S. cerevisiae strain. Nature of the experiment: UV sensitivity complementation (spot assay), rad30Δ strain. The format is cell-based, Saccharomyces cerevisiae. The settings on record: ADH1 promoter, UV 16–32 J/m^2, 30 °C, 3 days. On the procedure:
Figure 1 Identification of PCNA interaction region in CaPolη.A, amino acid alignment between Ca- and Sc-Polη was carried out by EMBOSS Needle; identical amino acids are marked by ∗ and similar amino acids were marked by: symbols. All the important motifs and domains are underlined, including Motif I to V, PAD, ubz and pip. Putative pip sequences were labeled as Seq-1 through Seq-4 in the C-terminal domain. […] C, putative pip sequences of CaPolη were compared with the already identified pip motifs of other Y-family pols. D, line diagram showing various domains of Polηs and a C-terminal deletant CaPolη (1–512). E, determination of binding kinetics of wild type or truncated CaPolƞ (1–512) with CaPCNA by ITC. […] F, UV sensitivities of S. cerevisiae strains. Cells of genomic rad30Δ and rad30Δrev3Δ deletion S. cerevisiae strains harboring YEP-ADH1p or YEP-ADH1p-ScPolη or YEP-ADH1p-CaPolη or YEP-ADH1p-CaPolη (1–512) or YEP-ADH1p-CaPolη F485A,L486A plasmids from an overnight SD-Ura culture were serially diluted and spotted onto SD-Ura plates. […]
Figure 2 Ubz domain of CaPolη is essential TLS activity.A, a line diagram showing the deletion and site-directed mutations in the ubz domain of CaPolη. […] Following UV irradiation, plates were incubated in the dark, and colonies were counted after 3 to 5 days. […]

Experiment [2] concerns rad30Δ S. cerevisiae strain. Particulars: S. cerevisiae strains; cited from earlier work.

B1: ScPolη F627A,F628A (protein, UniProt Q04049 1-632, looked up, variant F627A F628A)
DNA polymerase eta: MSKFTWKELIQLGSPSKAYESSLACIAHIDMNAFFAQVEQMRCGLSKEDPVVCVQWNSIIAVSYAARKYGISRMDTIQEALKKCSNLIPIHTAVFKKGEDFWQYHDGCGSWVQDPAKQISVEDHKVSLEPYRRESRKALKIFKSACDLVERASIDEVFLDLGRICFNMLMFDNEYELTGDLKLKDALSNIREAFIGGNYDINSHLPLIPEKIKSLKFEGDVFNPEGRDLITDWDDVILALGSQVCKGIRDSIKDILGYTTSCGLSSTKNVCKLASNYKKPDAQTIVKNDCLLDFLDCGKFEITSFWTLGGVLGKELIDVLDLPHENSIKHIRETWPDNAGQLKEFLDAKVKQSDYDRSTSNIDPLKTADLAEKLFKLSRGRYGLPLSSRPVVKSMMSNKNLRGKSCNSIVDCISWLEVFCAELTSRIQDLEQEYNKIVIPRTVSISLKTKSYEVYRKSGPVAYKGINFQSHELLKVGIKFVTDLDIKGKNKSYYPLTKLSMTITNFDIIDLQKTVVDMFGNQVHTFKSSAGKEDEEKTTSSKADEKTPKLECCKYQVTFTDQKALQEHADYHLALKLSEGLNGAEESSKNLSFGEKRLLFSRKRPNSQHTATPQKKQVTSSKNILSAATRKK
Regarding B1, the “UV sensitivity / complementation (in words)” value in experiment [1] was “abrogated its TLS function and displayed equal UV sensitivity with rad30Δ strain”. Besides, the “UV sensitivity and UV-induced mutagenesis (in words)” value in experiment [2] was “enhanced UV sensitivity and UV-induced mutagenesis”.
